Experimental findings from paper PMC2940250 are described below.

The term Kd denotes the equilibrium constant for the complex coming apart. Low values mean higher affinity, high ones lower affinity.

Holding throughout (assay): other fluorescence titration
Assay [1] addresses B1 chimeric virus (HRV14:HIV-1 gp41 ELDKWAS chimera) (human rhinovirus 14 | HIV-1 HxB2).
Assay [2] addresses C1 chimeric virus (HRV14:HIV-1 gp41 ELDKWAS chimera) (human rhinovirus 14 | HIV-1 HxB2).
Assay [3] concerns the target 14-C40-1 chimeric virus (HRV14:HIV-1 gp41 ALDKWAS chimera from a previous library) (human rhinovirus 14 | HIV-1 HxB2).

On to “broadly neutralizing human mAb 2F5 (antibody)”, for which the dissociation constant (Kd) in assay [1] is 2 nM; in assay [2], 23.8 nM; in assay [3] it was 769 nM.
